Several values for one entry are separate records, joined by “and”; a condition that tells them apart may be missing. Equal values may be shown once. One block for each binder: values may come before it.
Legend:
[1] = biological target: T1, GPNMB (CG56972), native full-length protein on the cell surface or in cell lysates (human, UniProt Q14956 23-492); assay: FACS, UACC-62 cells, Ab 1 ug/mL
T1 construct: Endogenous on human tumour cell lines (named under assay); also called CR011 protein; GPNMB antigen
T1 sequence: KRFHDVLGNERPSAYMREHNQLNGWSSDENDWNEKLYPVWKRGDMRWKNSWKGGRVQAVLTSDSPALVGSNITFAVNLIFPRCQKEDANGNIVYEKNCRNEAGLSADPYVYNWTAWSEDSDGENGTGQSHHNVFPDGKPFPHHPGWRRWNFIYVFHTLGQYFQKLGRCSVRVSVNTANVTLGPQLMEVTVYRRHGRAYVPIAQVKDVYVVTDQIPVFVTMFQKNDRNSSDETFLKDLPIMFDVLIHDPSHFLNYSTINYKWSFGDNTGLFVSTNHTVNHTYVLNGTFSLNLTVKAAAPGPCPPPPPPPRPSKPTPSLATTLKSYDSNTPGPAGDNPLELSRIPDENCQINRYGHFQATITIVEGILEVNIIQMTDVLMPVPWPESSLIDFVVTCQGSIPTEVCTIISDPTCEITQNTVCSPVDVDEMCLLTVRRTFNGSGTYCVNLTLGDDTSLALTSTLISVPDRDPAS
Procedure: Cells were washed twice with PBS (Ca and Mg free), incubated with Versene at 37° C. until cells detached, counted and aliquoted at 1 million cells per assay tube. Cells were then washed twice and resuspended in ice-cold FACS buffer (0.01M HEPES, 0.15M NaCl, 0.1% NaN₃ and 4% FBS). Primary antibody at 1 μg/mL was added to the cells. Cells were incubated on ice for 30 min, washed 2-3 times and resuspended in 1 mL of ice-cold FACS buffer. R-PE-conjugated goat anti-human antibody (Jackson ImmunoResearch Laboratory) at 1:100 dilution was added and cells were incubated on ice for 30 min. After washing 3 times with 1 mL of ice-cold FACS buffer, cells were fixed with 0.5-1 mL of 1% formaldehyde in PBS and analyzed by flow cytometry.

[2] = biological target: T2, CD3 on purified human T cells (human, UniProt P07766 23-207); assay: flow cytometry on purified human T cells, mouse anti-FLAG mAb then PE goat anti-mouse Ig F(ab')2
T2 construct: whole, on cells; also called CD3/TCR complex
Source text: (Jackson ImmunoResearch, West Grove, Pa.) Ten thousand events were collected and analyzed on a FACSCalibur instrument (Becton Dickinson, Mountain View, Calif.).
To verify binding of the bi-scFv to human CD3 molecules, we used purified human T cells.

[3] = biological target: T1, GPNMB (CG56972), native full-length …; assay: cell-based or functional assay
[4] = biological target: T1, GPNMB (CG56972), native full-length …; assay: cell-based or functional assay; remark: listed apart in the source
[5] = biological target: T1, GPNMB (CG56972), native full-length …; assay: cell-based or functional assay; remark: listed apart in the source
[6] = biological target: T1, GPNMB (CG56972), native full-length …; assay: cell-based or functional assay; remark: listed apart in the source
[7] = biological target: T1, GPNMB (CG56972), native full-length …; assay: cell-based or functional assay; remark: listed apart in the source
[8] = biological target: T1, GPNMB (CG56972), native full-length …; assay: cell-based or functional assay; remark: listed apart in the source

T2 sequence (P07766 23-207): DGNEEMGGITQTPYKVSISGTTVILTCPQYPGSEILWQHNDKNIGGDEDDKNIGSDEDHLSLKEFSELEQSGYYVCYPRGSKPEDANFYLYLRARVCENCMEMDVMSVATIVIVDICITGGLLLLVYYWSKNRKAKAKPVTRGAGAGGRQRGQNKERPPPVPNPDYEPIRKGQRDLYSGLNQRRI

B1: Mab1.2.2 (antibody, human IgG2, V domains shown)
VH: ITLKESGPTLVKPTQTLTLTCTFSGFSLSAGGVGVGWIRQPPGKALEWLALIYWNDDKRYSPSLRSRLTITKDTSKNQVVLTITNMDPVDTATYYCAHSHYDYDWGSYFDYWGQGTLVTVSS
VL: DIVMTQTPLSLPVTPGEPASISCRSSQSLLDSDDGNTYLDWYLQKPGQSPQLLIYTLSYRASGVPDRFSGSGSGTDFTLNISRVEAEDVGVYYCMQRIEFPITFGQGTRLEIKR
notes: Human IgG2 kappa from XenoMouse XMG2; also called CR011.1.2.2
- Geo Mean Ratio (relative to pK16) [1]: 1.24

B5: Mab1.15.1 (CR011), fully human IgG2 (antibody)
heavy: QVQLQESGPGLVKPSQTLSLTCTVSGGSISSFNYYWSWIRHHPGKGLEWIGYIYYSGSTYSNPSLKSRVTISVDTSKNQFSLTLSSVTAADTAVYYCARGYNWNYFDYWGQGTLVTVSSASTKGPSVFPLAPCSRSTSESTAALGCLVKDYFPEPVTVSWNSGALTSGVHTFPAVLQSSGLYSLSSVVTVPSSNFGTQTYTCNVDHKPSNTKVDKTVERKCCVECPPCPAPPVAGPSVFLFPPKPKDTLMISRTPEVTCVVVDVSHEDPEVQFNWYVDGVEVHNAKTKPREEQFNSTFRVVSVLTVVHQDWLNGKEYKCKVSNKGLPAPIEKTISKTKGQPREPQVYTLPPSREEMTKNQVSLTCLVKGFYPSDIAVEWESNGQPENNYKTTPPMLDSDGSFFLYSKLTVDKSRWQQGNVFSCSVMHEALHNHYTQKSLSLSPGK
VL: not shown
- killing of UACC-62 cells with saporin-conjugated secondary antibody, clonogenic, Ab 50 ng/mL [3]: > 70%

B6: Mab2.22.1 (antibody, human IgG2, V domains shown)
VH: QVQLEQSGPGLVKPSQNLSLTCTVSGGSISSGGYFWSWIRQHPGKGLEWIGYIYYSGNTYYNPSLKSRVTISVDTSKNQFSLKLSSVTAADTAVYYCARDYYYDTSGFSYRYDWYYGMDVWGQGTTVTVSS
VL: DIQLTQSPSSLSASVGDRVTITCRASQGIRNDLGWYQQKPGKAPKRLIYAASSLQNGVPSRFSGSGSGTEFTLTISSLQPEDFATYYCLQHNTYPAFGQGTKVEIKR
notes: Human IgG2 kappa from XenoMouse XMG2; also called CR011.2.22.1
- killing of UACC-62 cells with saporin-conjugated secondary antibody, clonogenic, Ab 50 ng/mL [3]: > 70%
- Geo Mean Ratio (relative to pK16) [1]: 4.46

Now from value to binder, other results behind:

- binding result [2]: no binding (tested: 5 µg/sample/100 µl)
B2: CR011 scFv (VL-L4-VH) Flag (scFv)
scFv: EIVMTQSPATLSVSPGERATLSCRASQSVDNNLVWYQQKPGQAPRLLIYGASTRATGIPARFSGSGSGTEFTLTISSLQSEDFAVYYCQQYNNWPPWTFGQGTKVEIKLSADDAKKDAAKKDDAKKDDAKKDLQVQLQESGPGLVKPSQTLSLTCTVSGGSISSFNYYWSWIRHHPGKGLEWIGYIYYSGSTYSNPSLKSRVTISVDTSKNQFSLTLSSVTAADTAVYYCARGYNWNYFDYWGQGTLVTVSSASDYKDDDDK
notes: C-terminal Flag tag is within the entry; also called CR011 single chain antibody; CR011 scFv monomer

- Geo Mean Ratio (relative to pK16) [1]: 2.6
B3: Mab2.10.2 (antibody, human IgG2, V domains shown)
VH: QLVESGGGVVQPGRSLRLSCAASGFAFSSYGMHWVRQAPGKGLEWVAVISYDGNNKYYADSVKGRFTISRDNSKNTLYLQMNSLRAEDTAVYYCARDLVVRGIRGYYYYFGMDVWGQGTTVTVSS
VL: not shown
notes: Human IgG2 kappa from XenoMouse XMG2; also called CR011.2.10.2
- killing of UACC-62 cells with saporin-conjugated secondary antibody, clonogenic, Ab 50 ng/mL [3]: > 70%

- IC50 of colony formation (% of control), clonogenic assay, SK-Mel-2 cells with GPNMB knocked down by GPNMB siRNA [6]: 1 µg/mL
- IC50 of colony formation (% of control), clonogenic assay, control-siRNA-transfected SK-Mel-2 cells [6]: 0.22 µg/mL
- IC50 of colony formation (% of control), clonogenic assay, mock-transfected SK-Mel-2 cells [6]: 0.33 µg/mL
- IC50 of colony formation (% of control), clonogenic assay after 96 h treatment of HEK293 cells transfected with GPNMB; the same conjugate on empty-vector cells prints >1000 [7]: 0.3 µg/mL
B4: CR011-vcMMAE (Mab1.15.1 conjugated to monomethylauristatin E through a valine-citrulline linker) (other)
heavy: QVQLQESGPGLVKPSQTLSLTCTVSGGSISSFNYYWSWIRHHPGKGLEWIGYIYYSGSTYSNPSLKSRVTISVDTSKNQFSLTLSSVTAADTAVYYCARGYNWNYFDYWGQGTLVTVSSASTKGPSVFPLAPCSRSTSESTAALGCLVKDYFPEPVTVSWNSGALTSGVHTFPAVLQSSGLYSLSSVVTVPSSNFGTQTYTCNVDHKPSNTKVDKTVERKCCVECPPCPAPPVAGPSVFLFPPKPKDTLMISRTPEVTCVVVDVSHEDPEVQFNWYVDGVEVHNAKTKPREEQFNSTFRVVSVLTVVHQDWLNGKEYKCKVSNKGLPAPIEKTISKTKGQPREPQVYTLPPSREEMTKNQVSLTCLVKGFYPSDIAVEWESNGQPENNYKTTPPMLDSDGSFFLYSKLTVDKSRWQQGNVFSCSVMHEALHNHYTQKSLSLSPGK
VL: not shown
modifications: vcMMAE on cysteines of reduced disulfides, about 4 drugs per antibody (3.5-4.2); positions not given
- IC50, clonogenic assay with 1.15.1-AE, G361 cells [4]: 1050 ng/mL and 6500 pM
- IC50, clonogenic assay with 1.15.1-AE, RPMI-7951 cells [4]: 972 ng/mL and 6000 pM
- IC50, clonogenic assay with 1.15.1-AE, SK-Mel 2 cells [4]: 111 ng/mL and 750 pM
- IC50, clonogenic assay with 1.15.1-AE, SK-Mel 5 cells [4]: 237 ng/mL and 1600 pM
- IC50, clonogenic assay with 1.15.1-AE, UACC-62 cells [4]: 697 ng/mL and 4300 pM
- IC50, clonogenic assay with 1.15.1-AE, UACC-257 cells [4]: 825 ng/mL and 5500 pM
- IC50, clonogenic assay with 1.15.1-AE, WM-266-4 cells [4]: 345 ng/mL and 2300 pM
- CR011-AE IC50, clonogenic assay, SF-268 cells (poor expression) [5]: > 1.5 µg/mL
- CR011-AE IC50, clonogenic assay, SF-539 cells [5]: 1.03 µg/mL
- CR011-AE IC50, clonogenic assay, SK-MEL-2 cells [5]: 0.303 µg/mL
- CR011-AE IC50, clonogenic assay, SNB-78 cells [5]: 0.449 µg/mL
- CR011-AE IC50, clonogenic assay, U-118-MG cells [5]: 1.25 µg/mL
- CR011-AE IC50, clonogenic assay, XF-498 cells [5]: 0.216 µg/mL
- IC50, clonogenic assay with 1.15.1-AE, SR cells [8]: 296 ng/mL and 2000 pM
- IC50, clonogenic assay with 1.15.1-AE, THP-1 cells [8]: 207 ng/mL and 1400 pM
- IC50, clonogenic assay with 1.15.1-AE, U937 cells [8]: 340 ng/mL and 2400 pM

— patent publication US20160311919A1 (CELLDEX THERAPEUTICS, published 2016)
